Paper PMC9732523

Biological target: hnRNP K (UniProt P61978 1-463)
Test: fluorescence anisotropy

| Binder | Kd [nM] |
| --- | --- |
| UCCUCCUCCCUUCCCCUCCCGGUCCCUA (ssRNA) [mRunx1 int3-4] | 14.5 |
| UCUCUUCCCUCCCUCCUUCCCUCCCCCCAU (ssRNA) [hRUNX1 int3-4] | 13.5 |
